Laboratory results reported in US20220048951A1.
“And” between values parts separate entries of the source, which are not always exact repeats. Equal values may be shown once.

Molecular target: T1, CD20 on CD20 positive lymphoma cells (Daudi, Raji) (human) (UniProt P11836)
T1 sequence: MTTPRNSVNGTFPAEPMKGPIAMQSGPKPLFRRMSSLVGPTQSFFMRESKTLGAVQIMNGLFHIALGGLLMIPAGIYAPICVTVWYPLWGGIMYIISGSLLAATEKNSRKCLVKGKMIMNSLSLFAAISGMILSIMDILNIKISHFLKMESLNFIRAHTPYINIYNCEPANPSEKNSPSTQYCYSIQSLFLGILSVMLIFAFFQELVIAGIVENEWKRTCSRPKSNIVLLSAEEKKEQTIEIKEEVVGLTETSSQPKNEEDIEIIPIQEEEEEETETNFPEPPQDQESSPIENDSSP
Assay: cell-based or functional assay

B1: anti-CD20 scFv-Phor18 conjugate (C-terminus) (scFv)
scFv: HHHHHHDIQLTQSPAILSASPGEKVTMTCRASSSVSYIHWFQQKPGSSPKPWIYATSNLASGVPVRFSGSGSGTSYSLTISRVEAEDAATYYCQQWTSNPPTFGGGTKLEIGSTSGGGSGGGSGGGGSSVQLQQPGAELVKPGASVKMSCKASGYTFTSYNMHWVKQTPGRGLEWIGAIYPGNGDTSYNQKFKGKATLTADKSSSTAYMQLSSLTSEDSAVYYCARSTYYGGDWYFDVWGQGTTVTVSSGSKFAKFAKKFAKFAKKFAK
B1 showed an IC50 nM, cell viability 24 h, Daudi (CD20 positive) of 10 nM, an IC50 nM, cell viability 46 h, Daudi (CD20 positive) of 1.5 nM and an IC50 nM, membrane integrity 2 h, Daudi (CD20 positive) of 110 nM. The IC50 nM, membrane integrity 5 h, Daudi (CD20 positive) was 112 nM and the caspase 3/7 activation relative to staurosporine (100%), CD20 positive cells, 5 h was 18.3% and 29.3%.

B2: anti-CD20-Phor18 minibody conjugate Fv-CH3-CH3-Fv-Phor18 (protein)
chain: DIQLTQSPAILSASPGEKVTMTCRASSSVSYIHWFQQKPGSSPKPWIYATSNLASGVPVRFSGSGSGTSYSLTISRVEAEDAATYYCQQWTSNPPTFGGGTKLEIGSTSGGGSGGGSGGGGSSVQLQQPGAELVKPGASVKMSCKASGYTFTSYNMHWVKQTPGRGLEWIGAIYPGNGDTSYNQKFKGKATLTADKSSSTAYMQLSSLTSEDSAVYYCARSTYYGGDWYFDVWGQGTTVTVSSGQPREPQVYTLPPSRDELTKNQVSLTCLVKGFYPSDIAVEWESNGQPENNYKTTPPVLDSDGSFFLYSKLTVDKSRWQQGNVFSCSVMHEALHNHYTQKSLSLSPGKGSTSGGGSGGGSGGGGSSGQPREPQVYTLPPSRDELTKNQVSLTCLVKGFYPSDIAVEWESNGQPENNYKTTPPVLDSDGSFFLYSKLTVDKSRWQQGNVFSCSVMHEALHNHYTQKSLSLSPGKVQLQQPGAELVKPGASVKMSCKASGYTFTSYNMHWVKQTPGRGLEWIGAIYPGNGDTSYNQKFKGKATLTADKSSSTAYMQLSSLTSEDSAVYYCARSTYYGGDWYFDVWGQGTTVTVSSGSTSGGGSGGGSGGGGSSDIQLTQSPAILSASPGEKVTMTCRASSSVSYIHWFQQKPGSSPKPWIYATSNLASGVPVFSGSGSGTSYSLTISRVEAEDAATYYCQQWTSNPPTFGGGTKLEIGSKFAKFAKKFAKFAKKFAK
B2 showed an IC50 nM, cell viability 24 h, Daudi (CD20 positive) of 10.5 nM and an IC50 nM, cell viability 46 h, Daudi (CD20 positive) of 3.6 nM.
